Measured values: the supplement of paper PMC7877785
± gives the uncertainty stated by the source.

Assay: self-splicing fitness, log relative to wild type (ln ratio); higher = more splicing; Tetrahymena group I intron in knt gene, E. coli kanamycin selection, DiMSum; sequences stand for … in CUCUCU…GGAGGGAAAAGUUAUCAGGCAUGCACCUGGUAGCUAGUCUUUAAACCAAUAGAUUGCAUCGGUUUAAAAGGCAAGACCGUCAAAUUGCGGGAAAGGGGUCAACAGCCGUUCAGUACCAAGUCUCAGGGGAAACUUUGAGAUGGCCUUGCAAAGGGUAUGGUAAUAAGCUGACGGACAUGGUCCUAACCACGCAGCCAAGUCCUAAGUCAACAGAUCUUCUGUUGAUAUGGAUGCAGUUCACAGACUAAAUGUCGGUCGGGGAAGAUGUAUUCUUCUCAUAAGAUAUAGUCGGACCUCUCCUUAAUGGGAGCUAGCGGAUGAAGUGAUGCAACACUGGAGCCGCUGGGAACUAAUUUGUAUGCGAAAGUAUAUUGAUUAGUUUUGGAGUACUCGUGGUCG
Method in brief: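 Six replicate transformations of E. coli BL21(DE3) with a pET-22b(+) library were grown overnight at 37°C or 30°C. The library randomised all eight P1ex-region intron nucleotides, the intron lying in the knt kanamycin-resistance gene, and plates were LB agar with or without 25 μg/mL kanamycin plus 100 μg/mL carbenicillin, 50 μM IPTG and 0.2% rhamnose. Pooled colonies were amplicon-sequenced on an Illumina HiSeq 2500, and fitness is the DiMSum error-weighted combination of wild-type-normalised replicate fold changes, kanamycin versus none.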

Sequence	self-splicing fitness (ln) (30 °C)	self-splicing fitness (ln) (37 °C)
GAACAGCAAUAUUACGGACC	-0.915 ± 0.12	0.0387 ± 0.14
GAACAGCAAUAUUACGGGGA	-1.6 ± 0.087	-0.774 ± 0.09
GAACAGCAAUAUUACGGGUC	-2.3 ± 0.19	-3 ± 0.27
GAACAGCAAUAUUACGGUCG	-1.17 ± 0.069	-0.372 ± 0.098
GAACAGCAAUAUUACGGUCU	-1.16 ± 0.086	-0.205 ± 0.095
GAACAGCAAUAUUACGUCUG	-2.54 ± 0.079	-0.775 ± 0.077
GAACAGCAAUAUUACGUGAA	-0.968 ± 0.061	-0.396 ± 0.069
GAACAGCAAUAUUACGUUUG	-2.2 ± 0.067	-0.632 ± 0.075
GAAGAGCAAUAUUACGAAUU	-3.24 ± 0.18	-2.21 ± 0.23
GAAGAGCAAUAUUACGACCU	-1.45 ± 0.13	-0.296 ± 0.18
GAAGAGCAAUAUUACGACUU	-0.765 ± 0.12	0.131 ± 0.14
GAAGAGCAAUAUUACGAGCC	-1.61 ± 0.24	-0.252 ± 0.36
GAAGAGCAAUAUUACGAUAC	-2.75 ± 0.39	–
GAAGAGCAAUAUUACGAUGA	-3.03 ± 0.31	-1.57 ± 0.17
GAAGAGCAAUAUUACGCACA	-1.91 ± 0.16	-1.07 ± 0.14
GAAGAGCAAUAUUACGCAUU	-4.28 ± 0.2	-2.2 ± 0.2
GAAGAGCAAUAUUACGCCGC	-2.05 ± 0.47	–
GAAGAGCAAUAUUACGGACC	-1.57 ± 0.14	-0.884 ± 0.19
GAAGAGCAAUAUUACGGGAA	-3.54 ± 0.47	-1.72 ± 0.28
GAAGAGCAAUAUUACGGGGC	-3.46 ± 0.28	-2.28 ± 0.26
GAAGAGCAAUAUUACGGGUC	-1.86 ± 0.27	–
GAAGAGCAAUAUUACGGGUU	-3.11 ± 0.2	-2.22 ± 0.2
GAAGAGCAAUAUUACGGUAA	-2.16 ± 0.29	-1.01 ± 0.24
GAAGAGCAAUAUUACGGUAG	-3.51 ± 0.17	-3.01 ± 0.22
GAAGAGCAAUAUUACGGUGA	-2.47 ± 0.16	-1.02 ± 0.096

Sequence	self-splicing fitness (ln) (30 °C)	self-splicing fitness (ln) (37 °C)
GAAGAGCAAUAUUACGUCGC	-2.58 ± 0.28	0.595 ± 0.21
GAAGAGCAAUAUUACGUGCG	-2.87 ± 0.15	-2.03 ± 0.17
GAAGAGCAAUAUUACGUGCU	-3.52 ± 0.22	–
GAAGAGCAAUAUUACGUUAA	-2.65 ± 0.22	-1.65 ± 0.2
GAAUAGCAAUAUUACGAACA	-0.419 ± 0.13	-0.622 ± 0.11
GAAUAGCAAUAUUACGAACG	-1.64 ± 0.1	-0.336 ± 0.11
GAAUAGCAAUAUUACGACGU	-0.363 ± 0.11	0.265 ± 0.13
GAAUAGCAAUAUUACGAGUU	-2.2 ± 0.084	-0.978 ± 0.093
GAAUAGCAAUAUUACGAUCA	-1.11 ± 0.12	0.308 ± 0.11
GAAUAGCAAUAUUACGAUCC	-1.16 ± 0.14	-0.622 ± 0.15
GAAUAGCAAUAUUACGAUUC	-2.67 ± 0.14	-2.24 ± 0.2
GAAUAGCAAUAUUACGCCGA	-1.62 ± 0.31	0.319 ± 0.22
GAAUAGCAAUAUUACGCCGG	-2.65 ± 0.32	-1.79 ± 0.24
GAAUAGCAAUAUUACGCGAU	-3.41 ± 0.2	-2.5 ± 0.19
GAAUAGCAAUAUUACGCGUU	-3.4 ± 0.24	-1.37 ± 0.15
GAAUAGCAAUAUUACGCUCU	-1.58 ± 0.12	-1.4 ± 0.14
GAAUAGCAAUAUUACGGCUC	0.451 ± 0.09	0.374 ± 0.14
GAAUAGCAAUAUUACGUCGA	-0.367 ± 0.11	-0.794 ± 0.12
GAAUAGCAAUAUUACGUUAA	-2.56 ± 0.17	-1.9 ± 0.15
GAAUAGCAAUAUUACGUUCA	-1.04 ± 0.38	-0.336 ± 0.3
GAAUAGCAAUAUUACGUUCU	-3.24 ± 0.26	-1.82 ± 0.27
GACAAGCAAUAUUACGAAAA	-2.27 ± 0.24	-2.22 ± 0.31
GACAAGCAAUAUUACGAAGC	-2.96 ± 0.22	-2.15 ± 0.28
GACAAGCAAUAUUACGAGCA	-1.12 ± 0.093	-0.355 ± 0.092
